# Test results taken from US20230091315A1 (CISBIO BIOASSAYS, published 2023).
# B1: antibody DSV36S (antibody, V domains shown)
# VH: EVQLQQSGAELVRPGALVKLSCKASGFNIKDYYMHWVKQRPEQGLEWIGWIDPENGNTIYDPKFQGKASITADTSSNTAYLQLSSLTSEDTAVYYCTRGGGYYSDWYFDVWGAGTTVTVSS
# VL: QIVLTQSPAIMSASPGEKVTMTCSASSSVSYMHWYQQKSGTSPKRWIYDTSKLASGVPARFSGSGSGTSYSLTISSMEAEDAATYYCQQWSSNPPITFGAGTKLELK
# notes: Used unlabeled or labeled with d2 (acceptor) or Lumi4Tb (donor); also called DSV36S-d2; DSV36S-Lumi4Tb
# Experiments:
# [1] = molecular target: T1, human recombinant G-protein alphai1 fused at the N-terminal with a Tag Twin-Strep-tag (TST-G protein alphai1) (human, UniProt B2RSH2 1-354 (mouse entry)); assay: HTRF competition on Gαi1 + GTPgS: unlabeled antibody varied against 36S-d2 (DSV36S-d2, 10 nM), detection with anti-Twin-Strep-tag-Lumi4 Tb
# T1 construct: Purified protein made in Sf9 insect cells; also called G-protein αi1; protein Gαi1
# Experimental: (§1) These two reagents were prepared in one and the same solution and were preincubated for 30 minutes at room temperature before being distributed in the wells. The cold antibodies DSV36S, DSV38S, DSV26S, DSV3S, and DSV39S were prepared 4× for final concentrations in the wells between 0.001 and 1 μM. The antibody DSV36S-d2 was prepared 4× for a final concentration of 10 nM.
# (§2) 1) 10 μl of the preincubated mixture of G-protein αi1 +GTPgS was put in each well, 2) 5 μl of the unlabeled antibodies DSV36S, DSV38S, DSV26S, DSV3S, and DSV39S was added to each well, 3) The plates were incubated for 30 minutes at room temperature, 4) 5 μl of the anti Twin-Strep-tag-Lumi4 Tb antibody and of the antibody DSV36S-d2 were added to each well.
# [2] = molecular target: T1, human recombinant G-protein alphai1 …; assay: HTRF (TR-FRET) titration of antibody-d2 on 2.5 nM Twin-Strep-tagged Gαi1 with anti-Twin-Strep-tag-Lumi4 Tb; condition: GTP 10 µM as printed (the protocol names GTPgS)
# Experimental: (§3) These two reagents were prepared in one and the same solution and were preincubated for 30 minutes at room temperature before being distributed in the wells. The antibodies DSV36S-d2, DSV38S-d2 and SC13533-d2 were prepared 4× for final concentrations in the wells between 0.01 and 10 nM depending on the antibodies.
# (§4) Moreover, the antibody titration curves obtained make it possible to calculate the affinity (Kd) of these different antibodies for the G-protein αi1. This was carried out using the GraphPad Prism software by applying a “one site specific binding” model to the HTRF data.
# [3] = molecular target: T1, human recombinant G-protein alphai1 …; assay: HTRF competition on Gαi1 + GTPgS: unlabeled antibody varied against DSV36S-d2 (10 nM), detection with anti-Twin-Strep-tag-Lumi4 Tb
# Experimental: as §1, §2
# [4] = molecular target: T1, human recombinant G-protein alphai1 …; assay: HTRF (TR-FRET) titration of antibody-d2 on 2.5 nM Twin-Strep-tagged Gαi1 with anti-Twin-Strep-tag-Lumi4 Tb; condition: GDP 10 µM
# Experimental: as §3, §4
# [5] = molecular target: T1, human recombinant G-protein alphai1 …; assay: HTRF (TR-FRET) titration of antibody-d2 on 2.5 nM Twin-Strep-tagged Gαi1 with anti-Twin-Strep-tag-Lumi4 Tb; condition: Buffer only
# Experimental: as §3, §4
# T1 sequence (B2RSH2 whole entry, the tested form may be a part): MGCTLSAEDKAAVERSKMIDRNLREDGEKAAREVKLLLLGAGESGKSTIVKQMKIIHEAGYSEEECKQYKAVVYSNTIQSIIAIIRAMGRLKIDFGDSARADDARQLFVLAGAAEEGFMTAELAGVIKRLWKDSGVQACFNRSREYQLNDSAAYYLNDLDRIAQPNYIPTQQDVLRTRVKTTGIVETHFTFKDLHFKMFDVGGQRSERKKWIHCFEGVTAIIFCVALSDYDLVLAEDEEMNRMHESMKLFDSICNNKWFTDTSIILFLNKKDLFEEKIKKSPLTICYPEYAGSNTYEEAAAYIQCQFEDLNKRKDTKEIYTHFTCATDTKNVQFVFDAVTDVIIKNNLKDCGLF
binder,measurement,setting,value
B1,IC50 (read off the curve),[1],~0.5 nM
same,Kd,[2],0.31 nM
same,IC50 (read off the curve),[3],~0.5 nM
same,Kd,[4],0.48 nM
same,Kd,[5],0.82 nM
